Source: the DeepSol protein solubility set

Test: soluble on expression in E. coli; label from the status in PepcDB or PDB records

| Sequence | soluble on expression in E. coli |
| --- | --- |
| MPLIRNYDYYDLLNVAPSTSAHRPTVMVTSSRSYMEPQKSRIYYGKNEWRGGNTTIHDPTEFEETTMDKNANEIAGDDKRKKKRWRDLLFPNSRHSSRKDKENSNVSVATRSLSSVSFRSEKPSRRRESGSLSRHRYIPPPPLPMPPRRIMTSTSMGYSDDAMTSSSSHTTTDYDDIVPVPTPSYVIYPAASIAQASRRQQQGSAKNRIFRSPTYHHDAFVNSHEWTLSRSISEMKLGIVGTSQSGKTALVHRYLTGTYTPDESPEGGRFKKEVVIEGQSHLLLIRDEGQQHLDVQFCQWVDAVVFVFNVCSIQSYDSIQALAHEMSKYRNISDLPLILVGTKDHISEKRARVITEDEGRQLAAQMKRCSYFETSSTYGTNVERVFKEACCKIIQLRVRSQVGAAAAASSQARTPTPTHSESGGRKDYQDPSRYISSNSFVMPSNMRPSFPSNSTRRNTVHHRGEHPQQQQYQQQPPSSSRTASERSMSAMLGTPYGNRMPAGVSPSASQKSVHSIANGCYSRSSAALLDSDTPAVNSYLIDSMSSAGFPLSQSGANQVSASTSHLPTPSSTPNTQRKNRRISNIFRQKDHQEEKSKMIESLNLGIGRAIPIKQGNLYKKSSKSALNREWKKKYVCLYSDGRLTYHTNLKEYMDKTAHGKEMDLKLATIRITGRLHPLHSHRVASSVDPMNGGGGGGTPTLKSYEPRRSDVGANSGDGTSGGGSDDAIKENQRQHFSPPAMPQTVAGKKKRESRKIGTNSKHNDEEDECFEVINNCLMRWEFCAGSLEERDEWIQAIGGEIEKSLGKEVANAKTNNRAVANRPDIAALRSIPGNGRCADCGNPSSEWASINLGIIICIECSGIHRNLGSHISKVRGLELDQWPVEHLAVMQAIGNDKANEMWEFGLLNGERKPTPESSREEKERFIDRKYVQKAFLKPIASGEPVTSQLISAVLARDVMSLNVLLANGMSVEEINTTTKDGRTVLHLAASIGSVELAQLLIWHNADAQILDNNGRSCLFYARSNGFREVFDMLVTAGLSPDYGLPQEINDFSQMPEFFAMGSTSNRDYSTSGDEMYGSRRISMGPPPQVPARRYLPQQPELDETSVI | not soluble |
| MPLNHYQQEVGPSLADTSPGKMPDVALLEGRYCSVEHLTVAEHYEDILDFYFTNQILSDWTYMYADPFESEEAVRQCLEDYEQSQNPYFFAIRDKASGKVLGTFSLMAITPKNRSVEMGRVILAPALQKTRAATEAQYLLMKYVFEDLNYRRYEWKCDKSQPPFCQCSHSFRVHL | not soluble |
| MPLTFAHSFADAVPSLSVPWRAEQWPDPRIIVFNHELGQELGIDEASLLSNITQQGHAQAYSGHQFGQFNPLLGDGRALVLGDCAQTNAPHGQFEISLKGSGPTPFARRGDGRATLGPMLREYLISEALHGLGIPTTRSLAVITTGTDVQRERLLPGAVVVRVAQNHLRVGSVQCAAMRDDDSLAALVRYALSSHEDGVSDAEAAGLLLRRVSTSQAKLVAQWMRFGFVHGVMNTDNVTLSGQTIDFGPCAFIDSFHPQAVFSSIDSHGRYSFGRQPSIMGWNIARLAEALLPLMSIDEARNIVHEFPDMYRRSWLDEMADAVGISPDDDHAAGVLDDLVALLDVHRPDYAQFMRSLSDGTTVSLFPWAQQWEAEVSSLRVAAPRNPVYVPRNYLVEDALEHAMNADMSVFSLLVEAGKNPYLREKRFEKLENPAPETWQDYVTYCGTLEHHHHHH | soluble |
| MPMFTSFDHQMMSRAIELAWRGRFTTSPNPNVGCVITRGEQIVGEGFHFRAGEPHAEVHAMRQAGELTRGATAYVTLEPCSHYGRTPPCAEGLIKAGVAKVICAMQDPNPQVAGKGVQMLRDAGIEVEVGLLEADARVLNRGFLKRMETGMPFVQLKMAASLDGQTALANGKSQWITSPAARKDVQRFRAQASAILSTSQTVLADNASLAVRWYDLPSSVQAQYAEADLRQPLRVILDRQHQLHPELALYQTPSPVLRVASENAELCISAENGKLDLRELLALLAQQHNVNQLWVEAGSQLAQSLIEQKLVDEIILYLAPKLMGSDGRGLFGALGLTEMAEAIELKIEDCRMVGADLRIIATPKTKD | not soluble |
| MPNIKIFSGSSHQDLSQKIADRLGLELGKVVTKKFSNQETCVEIGESVRGEDVYIVQSGCGEINDNLMELLIMINACKIASASRVTAVIPCFPYARQDKKDKSRAPISAKLVANMLSVAGADHIITMDLHASQIQGFFDIPVDNLYAEPAVLKWIRENISEWRNCTIVSPDAGGAKRVTSIADRLNVDFALIHKERKKANEVDRMVLVGDVKDRVAILVDDMADTCGTICHAADKLLSAGATRVYAILTHGIFSGPAISRINNACFEAVVVTNTIPQEDKMKHCSKIQVIDISMILAEAIRRTHNGESVSYLFSHVPLLEHHHHHH | soluble |
| MPNNEASEEAKWYVVHTYSGYENKVKANLEKIVENRNLQDYILDIVVPMEEQIEIKDGKKKASLKKVFPGYVLVKMIMNDESWYVVRNTRGVTGFVGPGSKAVPLTDEEIRAMGVEEFAPVLDYEVGDNVRVVSGPLENFIGIVEEINLEKKKVRVSVSMFGRETPVELELHQIQKI | soluble |
| MPNYPFPILWLPPKPLGHLLRNMDFRNLIIFSLTSKPAKWLTELLNMDAPMISVHVDHQINIIVSSVKSVTYHASNGSLRESRGKIDRQINFPGSLKQFVEHLLHIFKEHKIDDLEIMCNSVYQYKPDIQALKGIKMRTLKLRYQESILKMFGTSADRIEFSTIKSAELENSKDILIQNFDYLKFDFEGSLTADNLIGINGKVVNIWAADIEMKDVNIFLKHWLKGSNPRLEKLILKTYRLDTDGNSVEDSVADLFRDLDCESIAESQFEILRDDESIAKISILEHGYWYNKIHCYFSLNEAMNLYTTYFWDIVHLQEKILH | not soluble |
| MPPYTVVYFPVRGRCAALRMLLADQGQSWKEEVVTVETWQEGSLKASCLYGQLPAFQDGDLTLYQSNTILRHLGRTLGLYGKDQQEAALVDMVNDGVEDLRCKYISLIYTNYEAGKDDYVKALPGQLKPFETLLSQNQGGKTFIVGDQISFADYNLLDLLLIHEVLAPGCLDAFPLLSAYVGRLSARPKLKAFLASPEYVNLPINGNGKQ | soluble |
| MPQVAGGRPRPPRGFRDFPPEVMILRKRLLSRLERVFESYGFDPLDTPAVEYWETLSGKYGEEAESRLIWRFQDPWSGRWYALRYDLTVPLARFVASNPGLPMPFKRYHIGKVWRHEEPQKGRYREFVQCDADIVGSPYPEADAEIVSLAVDSIDALGLPGFRVRVNDRRLLAGVFEEELGFDNPLPIYRAIDKLDKIGVEGVRRELERLGLPGSTVERIMEIISWRGRPGEVLESVRRGYGSNEKVREALDHLEEMLSLADDKRVELDMSLVRGLDYYTGPILEVVLDEPRIGSVAGGGRYDGLVGMFAGRDIPATGVSIGIERIIDAGLELGVYSLDVKTVAQVAVVVLDRRYYRYAWEAARILRRGGLNVRIDLSRASGQVQRRKASRLGIPVLAFVGAKEAEGGFLTLYSAAKGERVAVPLGEAVKAVERLLPS | soluble |
| MPRELGESLELRKGRHSVVYLTEKYAIKQFHERFRYNFLKEVKFLTLLQPFFFTPKLYFVDFANLRIVMERLRGRRFDEAFIRKAVERALEACFIMDVMGVEKQEMNHPDKHIIVGDDVYLIDFERARFKDRPSNLTQFCMYLRRFGIEIEKTLLKDYKTSVNCENFSRILHSVVEKLK | not soluble |
| MPRTDLPFDELIIREYLLDNPDFFNRYPELLLAMRLPHLERGAISLVERRQELLRQRVNQLEEEITSLLTMAARNEKIFLFNTELSFKLLNCVNLESLKEVLADNLKAQFNFTHVRLISVLEADVEMKAIWAERLRKEYYFGRLTQQEAKRLFGSEVGSVALVKLADDIPVIFAVASHDATHFHPDMDNMLLEQIRRLLAHMLAKLAAALEHHHHHH | not soluble |
| MPSAAPSSSVLLVQISDSHLFAEADGALLGMSTRDSLEKVVDLVLAEQPQVDLVVASGDISQDGSVESYEAFRRISTQIAAPARWFAGNHDELPQMEHVAQAEGLLEPIINIGRWRVTLLDSAVPGSVPGFLAAGQLQLLEQSLSEAPDRHHLVCLHHHPVAIGCEWMTPIGLRNADALFAVLDRFPQVRAVLWGHVHQEFDQMRNGVRLLASPSTCIQFAPGSADFKVDTTAPGYRWLRLHDDGRLETAVSRVVGMQFEVDYGGTGY | not soluble |
| MPSISKTKSGERYRAPTDQARKMDRKKENKRNKKDRQQIRQAMAKYCNLDETTSKLLALERQILGLDPQPFHIDVLRKKQKVLTDSINKRRMTLQQGKEDAELKKFNDKINAYQSDCQKLAVLAQQARLAREADPDMIPLPMGDVSTAGPERNNQLLAPAMIKRKVEFQLPPRPVRVAGQKPPGPPCGLAPNFSDSEEEEEEVHDDHYDDIDLAPVPIPEFDNPYQPIHRNYGPPSSYNSMPTRMPHHHHHHHPHASSHYNPMGFQNHHEEAVISSAPQINRSNEPAAPATLSAAPELRNLRRETVKLVPAQLLRRPGDNKTIVPRQAAPVQRRPEVQKQAKNTDEAYNDFMKELDGLI | not soluble |
| MPSKQVGWWTMSEHTNDEVQPTALSGNDAVNRAAEQWKESAHRNIPGLGDLPIPDDTANLREGPNLHDGLLALLPLVGVWRGTGHADTAEEGQYAFGQQITFAHDGENYLTYESRIWKLDDEGNSTDLDYRESGFWRISLKDEIEVVLTHSTGVAEIFYGEPMNERAWQIESASTMVTAQGPATLGPGKRLYGLMPNNNLGWVDERMVDGEMRPRMSAELSRVIG | not soluble |
| MPTALIADDEPNLSAELAERLAELWPELEIVAMPRNGVDTLAALNAARPDIAFLDIRMPGIDGLKLASLVPDVHVVFVTAYDEYAVEAFDRSAIDYLLKPVTDERLLRCIAKLQRGGFAPPGAQALSDARMPKEPTLIRWLTVGLKDTTRLVSVDDVLYFQALDKYTEVVTAGERHVIRTPLKELLQRLDQDRFAQVHRGVIVAYAAIDRIERDLLGRLCIHLHGHRDVLPVSRAYAGLFKHM | not soluble |
| MPTDKEGDFIDPKEQEESLENIFSSLNDFQEKTDANAQKNEQKNEQEEEQRRLKEQQRLRKNQKNQEMLKGLQQNLNQFAQKLESVKNKTLDLQIPKQDGVDEKAYQEWYAQIYQILYKGWKGVFYHKASVSALIMIAKDGEFDYTILSYSDFKDYNKSVMTLLNDLKKVDFPPYPGGSMISIQVNFTTKEEQ | not soluble |
| MPTLTARSVIPPYMLRRIIEHGSLPQRDCALHTLNHVQSLLGNKPLRAPGAKTSTGGEVIRDIYDAENSTQLPGKQVRNEGQASNHDVAVDEAYDYLGVTYDFFWQAFKRNSLDNQGLPLTGSVHYGKEYQNAFWNGQQMVFGDGDGEIFNRFTIAIDVVGHALAHGVTESEAGLIYFQQAGALNESLSDVFGSLVKQFHLKQTADKADWLIGEGLLAKGINGKGLRSMSAPGTAYDDPLLGKDPQPASMKDYIQTKEDNGGVHLNSGIPNRAFYLAATALGGYAWEKAGYIWYDTLCDKALPQDADFATFARTTVKHAEQRFDSKVAQKVQQAWHQVGVA | soluble |
| MPTYEELSQAVFEGDEAQVVELTRSLLSGGAEPLEVINKGLIAGMDRVGVLFKNNEMFVPEVLMSANAMNAGVEVVKQSQQAFDMPSVGKIVLGTVKGDLHDIGKNLVAMMLESGGFTVYNLGVDIEPGKFVEAVKKYQPDIVGMSALLTTTMMNMKSTIDALIAAGLRDRVKVIVGGAPLSQDFADEIGADGYAPDAASATELCRQLLE | soluble |
